The record followed here is US20180071366A1.

Numbered stars: 1 amine (or outer) side, 2 acyl side, 3 side chain; on linkers, the order of the positions; unused ones are H or OH. Bridge positions count the residues as written; N and C are the ends. Square brackets hold non-standard residues; d marks the D form. * marks the point of attachment. C20 diacid = O=C(O)CCCCCCCCCCCCCCCCCCC(=O)*; γGlu = O=C(O)[C@H](CCC(=O)[*:2])N[*:1]; Hyp = O=C(O)[C@@H]1C[C@@H](O)CN1; NMeI = CC[C@H](C)[C@H](NC)C(=O)O; Aad = N[C@@H](CCCC(=O)O)C(=O)O; Orn = NCCC[C@H](N)C(=O)O; Sar = CNCC(=O)O

Assay [1] has as its target recombinant human amylin 3 receptor (hAMYR3) (human), P30988. The assay is described as follows: cell-based or functional assay.
Assay [2] addresses recombinant human calcitonin receptor (hCT-R) (human), P30988. The assay is described as follows: cell-based or functional assay.

Chain of recombinant human amylin 3 receptor (hAMYR3) (human), P30988 (P30988 25-474, chain 1 of 2): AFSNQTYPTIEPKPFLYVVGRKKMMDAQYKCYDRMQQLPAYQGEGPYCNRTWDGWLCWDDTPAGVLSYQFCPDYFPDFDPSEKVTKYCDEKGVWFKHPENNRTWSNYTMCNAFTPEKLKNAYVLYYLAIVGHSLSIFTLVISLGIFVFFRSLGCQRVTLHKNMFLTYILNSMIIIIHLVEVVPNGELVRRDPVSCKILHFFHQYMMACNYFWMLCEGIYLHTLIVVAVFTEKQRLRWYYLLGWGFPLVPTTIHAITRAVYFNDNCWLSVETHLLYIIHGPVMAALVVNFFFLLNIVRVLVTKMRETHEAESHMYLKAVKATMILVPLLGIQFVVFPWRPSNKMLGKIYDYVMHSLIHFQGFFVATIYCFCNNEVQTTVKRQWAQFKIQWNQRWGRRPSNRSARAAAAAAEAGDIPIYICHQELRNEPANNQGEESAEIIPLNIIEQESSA
Chain of recombinant human amylin 3 receptor (hAMYR3) (human), P30988 (O60896 24-148, chain 2 of 2, further chain): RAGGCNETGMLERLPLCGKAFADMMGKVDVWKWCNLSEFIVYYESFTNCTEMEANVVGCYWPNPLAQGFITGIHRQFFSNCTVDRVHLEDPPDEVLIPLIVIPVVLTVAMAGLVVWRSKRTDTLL
Chain of recombinant human calcitonin receptor (hCT-R) (human), P30988 (P30988 25-474): as the sequence (P30988 25-474, chain 1 of 2) above

B1: Compound 7 (peptide)
peptide: {C20 diacid-γGlu}-RDGTAT[Orn]ATERLAHFLHRSSF[Sar]A[NMeI]LSSTEVGSNTP-NH2
modifications: lactam 2-7
SMILES: CC[C@H](C)[C@@H](C(=O)N[C@@H](CC(C)C)C(=O)N[C@@H](CO)C(=O)N[C@@H](CO)C(=O)N[C@H](C(=O)N[C@@H](CCC(=O)O)C(=O)N[C@H](C(=O)NCC(=O)N[C@@H](CO)C(=O)N[C@@H](CC(N)=O)C(=O)N[C@H](C(=O)N1CCC[C@H]1C(N)=O)[C@@H](C)O)C(C)C)[C@@H](C)O)N(C)C(=O)[C@H](C)NC(=O)CN(C)C(=O)[C@H](Cc1ccccc1)NC(=O)[C@H](CO)NC(=O)[C@H](CO)NC(=O)[C@H](CCCNC(=N)N)NC(=O)[C@H](Cc1c[nH]cn1)NC(=O)[C@H](CC(C)C)NC(=O)[C@H](Cc1ccccc1)NC(=O)[C@H](Cc1c[nH]cn1)NC(=O)[C@H](C)NC(=O)[C@H](CC(C)C)NC(=O)[C@H](CCCNC(=N)N)NC(=O)[C@H](CCC(=O)O)NC(=O)[C@@H](NC(=O)[C@H](C)NC(=O)[C@@H]1CCCNC(=O)C[C@H](NC(=O)[C@H](CCCNC(=N)N)NC(=O)CC[C@H](NC(=O)CCCCCCCCCCCCCCCCCCC(=O)O)C(=O)O)C(=O)NCC(=O)N[C@@H]([C@@H](C)O)C(=O)N[C@@H](C)C(=O)N[C@@H]([C@@H](C)O)C(=O)N1)[C@@H](C)O
Consider B1, for which the hAMYR3 EC50 [nM] (cAMP formation, 1321N1 cells expressing hAMYR3) in assay [1] amounted to 0.032 nM. In assay [2], the hCT-R EC50 [nM] (cAMP formation, 1321N1 cells expressing hCT-R) was 0.289 nM.

B2: Compound 9 (peptide)
peptide: {C20 diacid-γGlu}-RDGTAT[Orn]ATQRLAHFLQRSSF[Sar]A[NMeI]PSSTEVGSNT[Hyp]-NH2
modifications: lactam 2-7
SMILES: CC[C@H](C)[C@@H](C(=O)N1CCC[C@H]1C(=O)N[C@@H](CO)C(=O)N[C@@H](CO)C(=O)N[C@H](C(=O)N[C@@H](CCC(=O)O)C(=O)N[C@H](C(=O)NCC(=O)N[C@@H](CO)C(=O)N[C@@H](CC(N)=O)C(=O)N[C@H](C(=O)N1C[C@H](O)C[C@H]1C(N)=O)[C@@H](C)O)C(C)C)[C@@H](C)O)N(C)C(=O)[C@H](C)NC(=O)CN(C)C(=O)[C@H](Cc1ccccc1)NC(=O)[C@H](CO)NC(=O)[C@H](CO)NC(=O)[C@H](CCCNC(=N)N)NC(=O)[C@H](CCC(N)=O)NC(=O)[C@H](CC(C)C)NC(=O)[C@H](Cc1ccccc1)NC(=O)[C@H](Cc1c[nH]cn1)NC(=O)[C@H](C)NC(=O)[C@H](CC(C)C)NC(=O)[C@H](CCCNC(=N)N)NC(=O)[C@H](CCC(N)=O)NC(=O)[C@@H](NC(=O)[C@H](C)NC(=O)[C@@H]1CCCNC(=O)C[C@H](NC(=O)[C@H](CCCNC(=N)N)NC(=O)CC[C@H](NC(=O)CCCCCCCCCCCCCCCCCCC(=O)O)C(=O)O)C(=O)NCC(=O)N[C@@H]([C@@H](C)O)C(=O)N[C@@H](C)C(=O)N[C@@H]([C@@H](C)O)C(=O)N1)[C@@H](C)O
B2: in assay [1], the hAMYR3 EC50 [nM] (cAMP formation, 1321N1 cells expressing hAMYR3) is 0.013 nM. In addition, the hCT-R EC50 [nM] (cAMP formation, 1321N1 cells expressing hCT-R) in assay [2] came to 0.027 nM.

B3: Ref. 4 (peptide)
peptide: {C20 diacid-γGlu}-RCGTATCATERLA[Aad]FLQRSSF[Sar]A[NMeI]LSSTEVGSNT[Hyp]-NH2
modifications: disulfide 2-7
SMILES: CC[C@H](C)[C@@H](C(=O)N[C@@H](CC(C)C)C(=O)N[C@@H](CO)C(=O)N[C@@H](CO)C(=O)N[C@H](C(=O)N[C@@H](CCC(=O)O)C(=O)N[C@H](C(=O)NCC(=O)N[C@@H](CO)C(=O)N[C@@H](CC(N)=O)C(=O)N[C@H](C(=O)N1C[C@H](O)C[C@H]1C(N)=O)[C@@H](C)O)C(C)C)[C@@H](C)O)N(C)C(=O)[C@H](C)NC(=O)CN(C)C(=O)[C@H](Cc1ccccc1)NC(=O)[C@H](CO)NC(=O)[C@H](CO)NC(=O)[C@H](CCCNC(=N)N)NC(=O)[C@H](CCC(N)=O)NC(=O)[C@H](CC(C)C)NC(=O)[C@H](Cc1ccccc1)NC(=O)[C@H](CCCC(=O)O)NC(=O)[C@H](C)NC(=O)[C@H](CC(C)C)NC(=O)[C@H](CCCNC(=N)N)NC(=O)[C@H](CCC(=O)O)NC(=O)[C@@H](NC(=O)[C@H](C)NC(=O)[C@@H]1CSSC[C@H](NC(=O)[C@H](CCCNC(=N)N)NC(=O)CC[C@H](NC(=O)CCCCCCCCCCCCCCCCCCC(=O)O)C(=O)O)C(=O)NCC(=O)N[C@@H]([C@@H](C)O)C(=O)N[C@@H](C)C(=O)N[C@@H]([C@@H](C)O)C(=O)N1)[C@@H](C)O
For B3, the hAMYR3 EC50 [nM] (cAMP formation, 1321N1 cells expressing hAMYR3) in assay [1] came out at 0.031 nM. Moreover, the hCT-R EC50 [nM] (cAMP formation, 1321N1 cells expressing hCT-R) in assay [2] turned out to be 0.075 nM.

B4: Compound 10 (peptide)
peptide: {C20 diacid-γGlu}-RDGTAT[Orn]ATERLARFLQRSSF[Sar]A[NMeI]LSSTEVGSNT[Hyp]-NH2
modifications: lactam 2-7
SMILES: CC[C@H](C)[C@@H](C(=O)N[C@@H](CC(C)C)C(=O)N[C@@H](CO)C(=O)N[C@@H](CO)C(=O)N[C@H](C(=O)N[C@@H](CCC(=O)O)C(=O)N[C@H](C(=O)NCC(=O)N[C@@H](CO)C(=O)N[C@@H](CC(N)=O)C(=O)N[C@H](C(=O)N1C[C@H](O)C[C@H]1C(N)=O)[C@@H](C)O)C(C)C)[C@@H](C)O)N(C)C(=O)[C@H](C)NC(=O)CN(C)C(=O)[C@H](Cc1ccccc1)NC(=O)[C@H](CO)NC(=O)[C@H](CO)NC(=O)[C@H](CCCNC(=N)N)NC(=O)[C@H](CCC(N)=O)NC(=O)[C@H](CC(C)C)NC(=O)[C@H](Cc1ccccc1)NC(=O)[C@H](CCCNC(=N)N)NC(=O)[C@H](C)NC(=O)[C@H](CC(C)C)NC(=O)[C@H](CCCNC(=N)N)NC(=O)[C@H](CCC(=O)O)NC(=O)[C@@H](NC(=O)[C@H](C)NC(=O)[C@@H]1CCCNC(=O)C[C@H](NC(=O)[C@H](CCCNC(=N)N)NC(=O)CC[C@H](NC(=O)CCCCCCCCCCCCCCCCCCC(=O)O)C(=O)O)C(=O)NCC(=O)N[C@@H]([C@@H](C)O)C(=O)N[C@@H](C)C(=O)N[C@@H]([C@@H](C)O)C(=O)N1)[C@@H](C)O
For the molecule B4, in assay [1], the hAMYR3 EC50 [nM] (cAMP formation, 1321N1 cells expressing hAMYR3) was found to be 0.068 nM. Further, the hCT-R EC50 [nM] (cAMP formation, 1321N1 cells expressing hCT-R) in assay [2] was 0.345 nM.

B5: Compound 11 (peptide)
peptide: {C20 diacid-γGlu}-EDGTATKATERLAHFLQRSSF[Sar]A[NMeI]LSSTEVGSNT[Hyp]-NH2
modifications: lactam 2-7
SMILES: CC[C@H](C)[C@@H](C(=O)N[C@@H](CC(C)C)C(=O)N[C@@H](CO)C(=O)N[C@@H](CO)C(=O)N[C@H](C(=O)N[C@@H](CCC(=O)O)C(=O)N[C@H](C(=O)NCC(=O)N[C@@H](CO)C(=O)N[C@@H](CC(N)=O)C(=O)N[C@H](C(=O)N1C[C@H](O)C[C@H]1C(N)=O)[C@@H](C)O)C(C)C)[C@@H](C)O)N(C)C(=O)[C@H](C)NC(=O)CN(C)C(=O)[C@H](Cc1ccccc1)NC(=O)[C@H](CO)NC(=O)[C@H](CO)NC(=O)[C@H](CCCNC(=N)N)NC(=O)[C@H](CCC(N)=O)NC(=O)[C@H](CC(C)C)NC(=O)[C@H](Cc1ccccc1)NC(=O)[C@H](Cc1c[nH]cn1)NC(=O)[C@H](C)NC(=O)[C@H](CC(C)C)NC(=O)[C@H](CCCNC(=N)N)NC(=O)[C@H](CCC(=O)O)NC(=O)[C@@H](NC(=O)[C@H](C)NC(=O)[C@@H]1CCCCNC(=O)C[C@H](NC(=O)[C@H](CCC(=O)O)NC(=O)CC[C@H](NC(=O)CCCCCCCCCCCCCCCCCCC(=O)O)C(=O)O)C(=O)NCC(=O)N[C@@H]([C@@H](C)O)C(=O)N[C@@H](C)C(=O)N[C@@H]([C@@H](C)O)C(=O)N1)[C@@H](C)O
As to B5, the hAMYR3 EC50 [nM] (cAMP formation, 1321N1 cells expressing hAMYR3) in assay [1] turned out to be 0.024 nM. For the same molecule, the hCT-R EC50 [nM] (cAMP formation, 1321N1 cells expressing hCT-R) in assay [2] turned out to be 0.068 nM.

B6: Compound 8 (peptide)
peptide: {C20 diacid-γGlu}-RDGTAT[Orn]ATQRLAHFLQRSSF[Sar]A[NMeI]LSSTEVGSNT[Hyp]-NH2
modifications: lactam 2-7
SMILES: CC[C@H](C)[C@@H](C(=O)N[C@@H](CC(C)C)C(=O)N[C@@H](CO)C(=O)N[C@@H](CO)C(=O)N[C@H](C(=O)N[C@@H](CCC(=O)O)C(=O)N[C@H](C(=O)NCC(=O)N[C@@H](CO)C(=O)N[C@@H](CC(N)=O)C(=O)N[C@H](C(=O)N1C[C@H](O)C[C@H]1C(N)=O)[C@@H](C)O)C(C)C)[C@@H](C)O)N(C)C(=O)[C@H](C)NC(=O)CN(C)C(=O)[C@H](Cc1ccccc1)NC(=O)[C@H](CO)NC(=O)[C@H](CO)NC(=O)[C@H](CCCNC(=N)N)NC(=O)[C@H](CCC(N)=O)NC(=O)[C@H](CC(C)C)NC(=O)[C@H](Cc1ccccc1)NC(=O)[C@H](Cc1c[nH]cn1)NC(=O)[C@H](C)NC(=O)[C@H](CC(C)C)NC(=O)[C@H](CCCNC(=N)N)NC(=O)[C@H](CCC(N)=O)NC(=O)[C@@H](NC(=O)[C@H](C)NC(=O)[C@@H]1CCCNC(=O)C[C@H](NC(=O)[C@H](CCCNC(=N)N)NC(=O)CC[C@H](NC(=O)CCCCCCCCCCCCCCCCCCC(=O)O)C(=O)O)C(=O)NCC(=O)N[C@@H]([C@@H](C)O)C(=O)N[C@@H](C)C(=O)N[C@@H]([C@@H](C)O)C(=O)N1)[C@@H](C)O
As for B6, in assay [1], the hAMYR3 EC50 [nM] (cAMP formation, 1321N1 cells expressing hAMYR3) stood at 0.059 nM. Further, in assay [2], the hCT-R EC50 [nM] (cAMP formation, 1321N1 cells expressing hCT-R) turned out to be 0.129 nM.

B7: Compound 6 (peptide)
peptide: {C20 diacid-γGlu}-RDGTAT[Orn]ATERLAHFLQRF[Sar]A[NMeI]LSSTEVGSNT[Hyp]-NH2
modifications: lactam 2-7
SMILES: CC[C@H](C)[C@@H](C(=O)N[C@@H](CC(C)C)C(=O)N[C@@H](CO)C(=O)N[C@@H](CO)C(=O)N[C@H](C(=O)N[C@@H](CCC(=O)O)C(=O)N[C@H](C(=O)NCC(=O)N[C@@H](CO)C(=O)N[C@@H](CC(N)=O)C(=O)N[C@H](C(=O)N1C[C@H](O)C[C@H]1C(N)=O)[C@@H](C)O)C(C)C)[C@@H](C)O)N(C)C(=O)[C@H](C)NC(=O)CN(C)C(=O)[C@H](Cc1ccccc1)NC(=O)[C@H](CCCNC(=N)N)NC(=O)[C@H](CCC(N)=O)NC(=O)[C@H](CC(C)C)NC(=O)[C@H](Cc1ccccc1)NC(=O)[C@H](Cc1c[nH]cn1)NC(=O)[C@H](C)NC(=O)[C@H](CC(C)C)NC(=O)[C@H](CCCNC(=N)N)NC(=O)[C@H](CCC(=O)O)NC(=O)[C@@H](NC(=O)[C@H](C)NC(=O)[C@@H]1CCCNC(=O)C[C@H](NC(=O)[C@H](CCCNC(=N)N)NC(=O)CC[C@H](NC(=O)CCCCCCCCCCCCCCCCCCC(=O)O)C(=O)O)C(=O)NCC(=O)N[C@@H]([C@@H](C)O)C(=O)N[C@@H](C)C(=O)N[C@@H]([C@@H](C)O)C(=O)N1)[C@@H](C)O
Consider B7, for which, in assay [1], the hAMYR3 EC50 [nM] (cAMP formation, 1321N1 cells expressing hAMYR3) came out at 0.011 nM. Further, the hCT-R EC50 [nM] (cAMP formation, 1321N1 cells expressing hCT-R) in assay [2] is 0.327 nM.
